Source: paper PMC11209935 (Cell, 2023)

Molecular target: RPA1 (subunit of recombinant RPA and Alt-RPA) (human, UniProt P27694 1-616)
Test: mass photometry

Chain of RPA1 (subunit of recombinant RPA and Alt-RPA) (P27694 whole entry): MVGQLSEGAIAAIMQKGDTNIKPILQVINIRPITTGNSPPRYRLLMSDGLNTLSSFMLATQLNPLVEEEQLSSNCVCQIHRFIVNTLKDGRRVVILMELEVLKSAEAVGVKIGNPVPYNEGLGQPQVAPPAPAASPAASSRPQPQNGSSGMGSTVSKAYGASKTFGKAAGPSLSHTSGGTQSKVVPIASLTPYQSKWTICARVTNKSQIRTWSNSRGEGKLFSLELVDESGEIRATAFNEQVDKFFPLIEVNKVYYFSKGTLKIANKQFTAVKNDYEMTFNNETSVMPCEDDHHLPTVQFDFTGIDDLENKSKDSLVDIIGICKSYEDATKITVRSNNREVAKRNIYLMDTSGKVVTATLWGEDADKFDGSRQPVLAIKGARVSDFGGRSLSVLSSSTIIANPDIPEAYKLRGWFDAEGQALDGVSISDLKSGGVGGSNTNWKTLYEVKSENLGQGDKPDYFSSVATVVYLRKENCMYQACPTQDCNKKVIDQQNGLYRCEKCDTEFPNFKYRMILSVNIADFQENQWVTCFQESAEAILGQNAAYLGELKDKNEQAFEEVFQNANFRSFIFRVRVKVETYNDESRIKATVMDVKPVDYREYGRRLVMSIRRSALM

B1: RPA4 (subunit of recombinant Alt-RPA) (natural protein, human, UniProt Q13156 1-261, looked up)
chain: MSKSGFGSYGSISAADGASGGSDQLCERDATPAIKTQRPKVRIQDVVPCNVNQLLSSTVFDPVFKVRGIIVSQVSIVGVIRGAEKASNHICYKIDDMTAKPIEARQWFGREKVKQVTPLSVGVYVKVFGILKCPTGTKSLEVLKIHVLEDMNEFTVHILETVNAHMMLDKARRDTTVESVPVSPSEVNDAGDNDESHRNFIQDEVLRLIHECPHQEGKSIHELRAQLCDLSVKAIKEAIDYLTVEGHIYPTVDREHFKSAD
  binding result: binds
